Laboratory results from article PMC10397247.
Blank lines part the entries; values can stand above or below the binder they belong to.

Key:
Q8-AA = molecular target: T1, Q8-AA; experiment: two-hybrid library CCmax; details: mean of both orientations;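 note: natural log of median RNA to DNA barcode read ratio; higher means stronger binding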
T1 chain: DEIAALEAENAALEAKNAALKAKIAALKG

Q7-AA = molecular target: T2, Q7-AA; experiment: two-hybrid library CCmax;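 note: natural log of median RNA to DNA barcode read ratio; higher means stronger binding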
T2 chain: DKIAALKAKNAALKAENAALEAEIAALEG

4H850-bN = molecular target: T3, 4H850-bN; experiment: two-hybrid library CCNG1;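 note: natural log of median RNA to DNA barcode read ratio; higher means stronger binding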
T3 chain: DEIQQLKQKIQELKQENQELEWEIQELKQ

4H3631-bN = molecular target: T4, 4H3631-bN; experiment: two-hybrid library CCNG1;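 note: natural log of median RNA to DNA barcode read ratio; higher means stronger binding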
T4 chain: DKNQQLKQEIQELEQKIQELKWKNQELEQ

4H3817-bN = molecular target: T5, 4H3817-bN; experiment: two-hybrid library CCNG1;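 note: natural log of median RNA to DNA barcode read ratio; higher means stronger binding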
T5 chain: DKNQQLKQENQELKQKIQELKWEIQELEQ

4H584-bN = molecular target: T6, 4H584-bN; experiment: two-hybrid library CCNG1;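 note: natural log of median RNA to DNA barcode read ratio; higher means stronger binding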
T6 chain: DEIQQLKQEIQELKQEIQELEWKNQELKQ

4H906-bN = molecular target: T7, 4H906-bN; experiment: two-hybrid library CCNG1
T7 chain: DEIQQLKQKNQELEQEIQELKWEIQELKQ

4H3974-bN = molecular target: T8, 4H3974-bN; experiment: two-hybrid library CCNG1
T8 chain: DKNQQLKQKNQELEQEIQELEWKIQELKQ

4H1985-bN = molecular target: T9, 4H1985-bN; experiment: two-hybrid library CCNG1
T9 chain: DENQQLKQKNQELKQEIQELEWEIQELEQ

4H1804-bN = molecular target: T10, 4H1804-bN; experiment: two-hybrid library CCNG1
T10 chain: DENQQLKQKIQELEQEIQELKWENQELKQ

4H3129-bN = molecular target: T11, 4H3129-bN; experiment: two-hybrid library CCNG1
T11 chain: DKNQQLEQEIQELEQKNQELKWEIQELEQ

4H3414-bN = molecular target: T12, 4H3414-bN; experiment: two-hybrid library CCNG1
T12 chain: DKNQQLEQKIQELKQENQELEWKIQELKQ

4H3172-bN = molecular target: T13, 4H3172-bN; experiment: two-hybrid library CCNG1
T13 chain: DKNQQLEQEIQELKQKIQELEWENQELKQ

4H3638-bN = molecular target: T14, 4H3638-bN; experiment: two-hybrid library CCNG1
T14 chain: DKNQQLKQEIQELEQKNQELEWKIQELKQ

4H570-bN = molecular target: T15, 4H570-bN; experiment: two-hybrid library CCNG1
T15 chain: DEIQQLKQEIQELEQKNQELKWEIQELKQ

4H619-bN = molecular target: T16, 4H619-bN; experiment: two-hybrid library CCNG1
T16 chain: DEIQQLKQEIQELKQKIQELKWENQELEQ

O8-bS = molecular target: T17, O8-bS; experiment: two-hybrid library CCNG1
T17 chain: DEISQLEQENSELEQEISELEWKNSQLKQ

O7-bS = molecular target: T18, O7-bS; experiment: two-hybrid library CCNG1
T18 chain: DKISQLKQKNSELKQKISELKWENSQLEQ

O9-bS = molecular target: T19, O9-bS; experiment: two-hybrid library CCNG1
T19 chain: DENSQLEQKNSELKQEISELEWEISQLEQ

O4-bS = molecular target: T20, O4-bS; experiment: two-hybrid library CCNG1
T20 chain: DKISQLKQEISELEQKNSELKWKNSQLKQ

O16-bS = molecular target: T21, O16-bS; experiment: two-hybrid library CCNG1
T21 chain: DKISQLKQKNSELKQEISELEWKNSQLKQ

O3-bS = molecular target: T22, O3-bS; experiment: two-hybrid library CCNG1
T22 chain: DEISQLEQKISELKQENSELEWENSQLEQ

O2-bS = molecular target: T23, O2-bS; experiment: two-hybrid library CCNG1
T23 chain: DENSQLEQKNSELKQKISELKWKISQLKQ

O6-bS = molecular target: T24, O6-bS; experiment: two-hybrid library CCNG1
T24 chain: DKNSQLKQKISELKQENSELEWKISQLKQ

O15-bS = molecular target: T25, O15-bS; experiment: two-hybrid library CCNG1
T25 chain: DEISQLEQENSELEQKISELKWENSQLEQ

O5-bS = molecular target: T26, O5-bS; experiment: two-hybrid library CCNG1
T26 chain: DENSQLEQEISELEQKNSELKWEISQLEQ

interaction score (Q8-AA): 2.38
interaction score (Q7-AA): -1.59
Binder: DKIAALKAKNAALKAENAALEAEIAALEG [Q7-AA]

interaction score (4H850-bN): 0.194
interaction score (4H3631-bN): 0.112
interaction score (4H3817-bN): -0.425
interaction score (4H584-bN): 0.249
interaction score (4H906-bN): -0.241
interaction score (4H3974-bN): -1.87
interaction score (4H1985-bN): 0.201
interaction score (4H1804-bN): 1.58
interaction score (4H3129-bN): 0.0855
interaction score (4H3414-bN): -0.563
interaction score (4H3172-bN): -0.368
interaction score (4H3638-bN): -0.805
interaction score (4H570-bN): -0.363
interaction score (4H619-bN): -1.34
Binder: DENQQLKQKIQELEQEIQELKWENQELKQ [4H1804-bN]

interaction score (O8-bS): -1.05
interaction score (O7-bS): -0.978
interaction score (O9-bS): -0.877
interaction score (O4-bS): -0.754
interaction score (O16-bS): 1.93
interaction score (O3-bS): -3.1
interaction score (O2-bS): -0.919
interaction score (O6-bS): -0.0139
interaction score (O15-bS): -0.724
interaction score (O5-bS): -1.13
Binder: DEISQLEQENSELEQKISELKWENSQLEQ [O15-bS]
